# Paper PMC12718013
# Target: purified human vitronectin (Invitrogen) (UniProt P04004)
# Test: ELISA
# Conditions: 20 nM Vn, read off a plot
# Sequence of UniProt P04004 (P04004 whole entry, looked up): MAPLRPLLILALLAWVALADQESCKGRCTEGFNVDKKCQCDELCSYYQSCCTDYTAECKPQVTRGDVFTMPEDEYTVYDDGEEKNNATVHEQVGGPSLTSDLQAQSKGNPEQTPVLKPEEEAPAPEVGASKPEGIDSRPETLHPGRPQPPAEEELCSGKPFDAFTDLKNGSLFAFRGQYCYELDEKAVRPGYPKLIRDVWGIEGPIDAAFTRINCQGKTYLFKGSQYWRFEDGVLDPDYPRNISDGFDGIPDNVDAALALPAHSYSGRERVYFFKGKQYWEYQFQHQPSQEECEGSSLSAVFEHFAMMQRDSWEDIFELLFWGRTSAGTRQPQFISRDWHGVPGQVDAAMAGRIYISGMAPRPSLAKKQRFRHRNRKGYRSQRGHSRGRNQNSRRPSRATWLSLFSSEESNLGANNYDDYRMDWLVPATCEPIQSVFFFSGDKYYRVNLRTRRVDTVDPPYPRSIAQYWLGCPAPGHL
substance,measurement,setting,value
synthetic peptide of loop 2 of P5 from NTHi KR271 I5A,response (absorbance at 450 nm),parent: est. 0.12,0.1
synthetic peptide of loop 2 of P5 from NTHi 3655 L5A; V8A; S12A,response (absorbance at 450 nm),parent: est. 0.28,0.13
synthetic peptide of loop 2 of P5 from NTHi P652 V3A; F5A; L7A,response (absorbance at 450 nm),parent: est. 0.97,0.45
synthetic peptide of loop 2 of P5 from NTHi KR317 L5A; V8A; Q10A; T11A; R12A,response (absorbance at 450 nm),parent: est. 0.23,0.095
